Like-named read-outs stand apart in the source and are kept apart here. Numbered stars: 1 amine (or outer) side, 2 acyl side, 3 side chain; on linkers, the order of the positions; unused ones are H or OH. Bridge positions count the residues as written; N and C are the ends. Square brackets hold non-standard residues; d marks the D form. Side chains are listed from the residue outwards. Peptide text beside a SMILES is read from it. * marks the point of attachment. DOTA(Lu) = O=C1CN2CCN3CCN(CC(=O)*)CCN(CC2)CC(=O)[O][Lu]([O]1)[O]C(=O)C3; NH(1-deoxy-D-glucityl) = OC[C@@H](O)[C@@H](O)[C@H](O)[C@@H](O)CN*; DOTA = O=C(O)CN1CCN(CC(=O)O)CCN(CC(=O)*)CCN(CC(=O)O)CC1; Trp(1-Me,7-Cl) = Cn1cc(C[C@H](N)C(=O)O)c2cccc(Cl)c21; dPhe(3-CONH2) = NC(=O)c1cccc(C[C@@H](N)C(=O)O)c1; NMePhe(3-CN) = CN[C@@H](Cc1cccc(C#N)c1)C(=O)O; Piperazinyl(4-CH2COOH) = O=C(O)CN1CCN(*)CC1; Trp(1-Me) = Cn1cc(C[C@H](N)C(=O)O)c2ccccc21; PEG8 = NCCOCCOCCOCCOCCOCCOCCOCCOCCC(=O)O; NMe3Pal = CN[C@@H](Cc1cccnc1)C(=O)O; NMeF = CN[C@@H](Cc1ccccc1)C(=O)O; Gly(cBu) = N[C@H](C(=O)O)C1CCC1; NMeE = CN[C@@H](CCC(=O)O)C(=O)O; Aad = N[C@@H](CCCC(=O)O)C(=O)O; NMeN = CN[C@@H](CC(N)=O)C(=O)O; AEEA = NCCOCCOCC(=O)O; CO = O=C([*:1])[*:2]; βAla = NCCC(=O)O
Experiments:
[1] = target: T1, Recombinant Human EphA2 Fc Protein (Homo sapiens, UniProt P29317); assay: Interaction analysis (kinetics, KD) of peptides and conjugates against EphA2 by SPR, Biacore T200, single-cycle kinetics (Examples B15 and B22); format: binding
T1 construct: purchased Elabscience
How it was run: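 Biacore T200 SPR with Fc-tagged human EphA2 captured via anti-human antibody; running buffer HBS-P+ pH 7.4 with 1% DMSO, 25 °C. Five serial dilutions of peptide or conjugate run by single-cycle kinetics; KD from ka and kd after baseline subtraction.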

[2] = Plasma stability (% remaining of test compound in CD-1 (ICR) mouse plasma at 37 °C; Example C1); format: in vitro ADME
Description: Example C1. Plasma Stability
The pooled frozen CD-1 (ICR) mouse plasma was thawed in a water bath at 37 °C prior to experiment. Plasma was centrifuged at 4000 rpm for 5 min and the clots were removed if any. pH was adjusted to 7.4±0.1 if required.
Plasma (98 μL) and test compounds (2 μL, 100 μM, in DMSO) or reference compound propantheline bromide (2 μL, 100 μM in 40% v/v MeOH/H2O) were added to the individual wells of a 96-well microtiter plate in duplicate. The plate was incubated at 37 °C. During the incubation, aliquots were withdrawn at 0, 10, 30, 60, 120, and 300 minutes. 100 μL 4% H3PO4 and 800 μL of stop solution (200 ng/mL tolbutamide and 200 ng/mL labetalol in 100% CH3CN) were added to precipitate unwanted proteins. After mixing thoroughly, the quenched aliquots were centrifuged at 4,000 rpm for 20 min. Aliquots (100 μL) of supernatant were transferred to a new plate. The samples were shaken at 800 rpm for 10 min before performing LC-MS/MS analysis.
The analytes were detected by a multiple reaction monitoring method using a SCIEX Triple Quad 6500+ system equipped with an ACQUITY UPLC HSS T3 column (100 Å, 1.8 μm, 2.1 mm×30 mm). Mobile phase A: water with 0.1% formic acid; Mobile phase B: CH3CN with 0.1% formic acid.
(§1) The % remaining of test compound after incubation in plasma was calculated using the following equation:
(§2) % Remaining=100×(PAR(t)/PAR(t0)), where PAR is the peak area ratio of analyte versus internal standard (IS)

[3] = Plasma stability (% remaining and T1/2 of test compound in human plasma; Table C1); format: in vitro ADME
Description: as §1, §2

[4] = conjugates, Biacore T200 according to Example B15, Table B16, read-out: SPR Kd

T1 sequence (P29317 24-534 limits assumed): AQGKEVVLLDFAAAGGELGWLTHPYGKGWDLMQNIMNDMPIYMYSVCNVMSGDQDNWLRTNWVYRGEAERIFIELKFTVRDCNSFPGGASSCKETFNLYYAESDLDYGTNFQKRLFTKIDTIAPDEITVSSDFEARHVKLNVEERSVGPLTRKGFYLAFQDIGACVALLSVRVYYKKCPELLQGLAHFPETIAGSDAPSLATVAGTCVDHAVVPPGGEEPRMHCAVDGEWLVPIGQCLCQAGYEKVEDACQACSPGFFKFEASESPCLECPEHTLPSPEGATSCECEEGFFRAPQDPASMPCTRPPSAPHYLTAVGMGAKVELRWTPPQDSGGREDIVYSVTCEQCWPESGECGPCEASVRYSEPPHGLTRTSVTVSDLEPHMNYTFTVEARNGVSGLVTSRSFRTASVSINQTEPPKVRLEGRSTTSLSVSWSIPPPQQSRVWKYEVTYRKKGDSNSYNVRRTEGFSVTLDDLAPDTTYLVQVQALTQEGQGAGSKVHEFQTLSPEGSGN

Q: With `CC(C)C[C@@H]1NC(=O)[C@H](CC(N)=O)NC(=O)[C@H](Cc2cccnc2)N(C)C(=O)[C@@H](C)NC(=O)CSC[C@@H](C(=O)N[C@H](CCCCNC(=O)CN2CCN(CC(=O)O)CCN(CC(=O)O)CCN(CC(=O)O)CC2)C(N)=O)NC(=O)[C@H](CCCC(N)=O)NC(=O)[C@H]([C@@H](C)O)NC(=O)[C@H](Cc2cn(C)c3ccccc23)NC(=O)[C@H](CCCCNC(=O)N2CCN(CC(=O)O)CC2)NC(=O)[C@H](Cc2cn(C)c3ccccc23)NC(=O)[C@H](CCC(=O)O)N(C)C(=O)[C@H](CCCC(N)=O)NC1=O.[Lu+3]` [PDC_EphA2-00026772] ({CH2CO}-[dA][NMe3Pal]NL[Aad](NH2)[NMeE][Trp(1-Me)]K([CO-Piperazinyl(4-CH2COOH)])[Trp(1-Me)]T[Aad](NH2)C[dK](DOTA)-NH2; thioether N-12) as the molecule, how does the Kd [1, 4] read?
A: < 1 nM

Q: With `CC(=O)NCCCC[C@@H](NC(=O)CCNC(=O)[C@@H]1CSCC(=O)N[C@H](C)C(=O)N(C)[C@@H](Cc2cccnc2)C(=O)N[C@@H](CC(N)=O)C(=O)N[C@@H](CC(C)C)C(=O)N[C@@H](CCCC(=O)O)C(=O)N(C)[C@@H](Cc2ccccc2)C(=O)N[C@@H](Cc2cn(C)c3ccccc23)C(=O)N[C@@H](C(C)C)C(=O)N[C@@H](Cc2cn(C)c3ccccc23)C(=O)N[C@@H]([C@@H](C)O)C(=O)N[C@@H](CCC(=O)O)C(=O)N1)C(N)=O` [PDC_EphA2-00008083] ({CH2CO}-[dA][NMe3Pal]NL[Aad][NMeF][Trp(1-Me)]V[Trp(1-Me)]TEC[βAla][dK](Ac)-NH2; thioether N-12) as the molecule, how does the Kd ([1]; peptides, Biacore T200, 25 °C, Table B12, read-out: SPR Kd) read?
A: < 1 nM

Q: For `CC(C)C[C@@H]1NC(=O)[C@H](CC(N)=O)NC(=O)[C@H](Cc2ccccc2)N(C)C(=O)[C@@H](C)NC(=O)CSC[C@@H](C(=O)NCCC(=O)N[C@H](CCCCNC(=O)COCCOCCNC(=O)CCOCCOCCOCCOCCOCCOCCOCCOCCNC(=O)CN2CCN(CC(=O)O)CCN(CC(=O)O)CCN(CC(=O)O)CC2)C(N)=O)NC(=O)[C@H](CCC(=O)O)NC(=O)[C@H]([C@@H](C)O)NC(=O)[C@H](Cc2cn(C)c3ccccc23)NC(=O)[C@H](C(C)C)NC(=O)[C@H](Cc2cn(C)c3ccccc23)NC(=O)[C@H](Cc2ccccc2)N(C)C(=O)[C@H](CCCC(=O)O)NC1=O.[Lu+3]` [PDC_EphA2-00001417-C306] ({CH2CO}-[dA][NMeF]NL[Aad][NMeF][Trp(1-Me)]V[Trp(1-Me)]TEC[βAla][dK]([AEEA-PEG8-DOTA])-NH2; thioether N-12), which Kd [1, 4] is on record?
A: 1 to 10 nM

Q: What about the “% Remaining Mouse” value ([2]; 0 min) of the same molecule?
A: 100%

Q: What about the remaining at 2 h, 2 µM ([2]; pH 7.4, 120 min) of the same molecule?
A: 91%

Q: And the half-life at 2 µM ([2]; pH 7.4, read-out: T1/2 (min) Mouse)?
A: > 289 min

Q: And the half-life [3]?
A: > 4.82 h

Q: What about the “% Remaining Human” value ([3]; 0 min) of the same molecule?
A: 100%

Q: What about the remaining at 2 h ([3]; 120 min) of the same molecule?
A: 99%

Q: With `C[C@@H](O)[C@@H]1NC(=O)[C@H](Cc2cn(C)c3ccccc23)NC(=O)[C@H](CCC(=O)NC[C@H](O)[C@@H](O)[C@H](O)[C@H](O)CO)NC(=O)[C@H](Cc2cn(C)c3c(Cl)cccc23)NC(=O)[C@H](CC(N)=O)N(C)C(=O)[C@H](CCCC(N)=O)NC(=O)[C@H](C2CCC2)NC(=O)[C@H](CC(N)=O)NC(=O)[C@H](Cc2cccc(C#N)c2)N(C)C(=O)[C@@H](Cc2cccc(C(N)=O)c2)NC(=O)CSC[C@@H](C(=O)N[C@H](CCCCNC(=O)CN2CCN3CCN4CCN(CC2)CC(=O)[O][Lu]([O]C(=O)C3)[O]C(=O)C4)C(N)=O)NC(=O)[C@H](CCCC(N)=O)NC1=O` [PDC_EphA2-00022615-C302] ({CH2CO}-[dPhe(3-CONH2)][NMePhe(3-CN)]N[Gly(cBu)][Aad](NH2)[NMeN][Trp(1-Me,7-Cl)]E(NH(1-deoxy-D-glucityl))[Trp(1-Me)]T[Aad](NH2)C[dK](DOTA(Lu))-NH2; thioether N-12) as the molecule, how does the Kd [1] read?
A: < 1 nM

— patent US20260364215A1, “Radiopharmaceutical Compositions Targeting Ephrin Type-A Receptor 2 and Uses Thereof” (PeptiDream Inc., priority 2022, published 2026)
